# Assay results reported in patent US20050064507.
# T1: splicing factor, arginine/serine-rich 4 peptide RSRSRSRSKSKDKRKSRKRS (SEQ ID NO:134) (not fully specified)
# T1 chain: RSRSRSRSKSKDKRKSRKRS
# T2: PSCD2 peptide AARKKRISVKKKQEQ (SEQ ID NO:93) (not fully specified)
# T2 chain: AARKKRISVKKKQEQ
# T3: MARCKS peptide KKRFSFKKSFKLSGFSFKKN (SEQ ID NO:123) (not fully specified)
# T3 chain: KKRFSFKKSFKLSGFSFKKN
# T4: CACNA1C peptide RGFLRSASLGRRASFHLE (SEQ ID NO:96) (not fully specified)
# T4 chain: RGFLRSASLGRRASFHLE
# T5: plectin peptide PLKEKKRERKTSSKSSVRKR (SEQ ID NO:125) (not fully specified)
# T5 chain: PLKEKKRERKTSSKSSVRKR
# T6: MARCKS peptide PSPSNETPKKKKKRFSFKKS (SEQ ID NO:157) (not fully specified)
# T6 chain: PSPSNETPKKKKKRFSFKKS
# T7: PARIS1 peptide RELEQLKAEYLERRASRRRA (SEQ ID NO:148) (not fully specified)
# T7 chain: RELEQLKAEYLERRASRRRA
# T8: PRKCA peptide RFARKGSLRQKNV (SEQ ID NO:85) (not fully specified)
# T8 chain: RFARKGSLRQKNV
# T9: AF15q14 peptide GFLNEPLSSKSQRRKSLKLK (SEQ ID NO:132) (not fully specified)
# T9 chain: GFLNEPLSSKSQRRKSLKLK
# T10: MARCKS peptide KKKKKRFSFKKSFKL (SEQ ID NO:80) (not fully specified)
# T10 chain: KKKKKRFSFKKSFKL
# T11: titin peptide PFEVVWYKDKRQLRSSKKYK (SEQ ID NO:160) (not fully specified)
# T11 chain: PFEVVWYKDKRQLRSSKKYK
# T12: GABA A receptor beta 2 peptide ERHVAQKKSRLRRRASQLKI (SEQ ID NO:142) (not fully specified)
# T12 chain: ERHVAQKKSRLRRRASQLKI
# T13: PLEC1 peptide KRERKTSSKSSVRKRR (SEQ ID NO:81) (not fully specified)
# T13 chain: KRERKTSSKSSVRKRR
# T14: NCF1 peptide GAPPRRSSIRNAH (SEQ ID NO:101) (not fully specified)
# T14 chain: GAPPRRSSIRNAH
# T15: SMARCA5 peptide MAQIERGEARIQRRISIKKA (SEQ ID NO:166) (not fully specified)
# T15 chain: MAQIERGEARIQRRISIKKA
# T16: MCM2 peptide VQRHRSMRKTFARYLSFRRD (SEQ ID NO:129) (not fully specified)
# T16 chain: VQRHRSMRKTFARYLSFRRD
# T17: Myt1 kinase peptide PPRTPGWHQLQPRRVSFRGE (SEQ ID NO:163) (not fully specified)
# T17 chain: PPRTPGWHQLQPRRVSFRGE
# T18: nuclear RNA export factor 3 peptide VRYTPYTISPYNRKGSFRKQ (SEQ ID NO:143) (not fully specified)
# T18 chain: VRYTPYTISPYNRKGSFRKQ
# T19: MacMARCKS peptide KKKFSFKKPFKLSGLSFKRN (SEQ ID NO:162) (not fully specified)
# T19 chain: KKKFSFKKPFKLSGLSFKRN
# T20: PARIS1 peptide EYLERRASRRRAV (SEQ ID NO:130) (not fully specified)
# T20 chain: EYLERRASRRRAV
# T21: NIK peptide WKGKRRSKARKKRK (SEQ ID NO:131) (not fully specified)
# T21 chain: WKGKRRSKARKKRK
# T22: slp4 peptide TYLLPDKSRQGKRKTSIKRD (SEQ ID NO:153) (not fully specified)
# T22 chain: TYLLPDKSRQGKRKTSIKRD
# T23: NEURL peptide ALRRPSLRREADD (SEQ ID NO:105) (not fully specified)
# T23 chain: ALRRPSLRREADD
# T24: pkc-zeta peptide GLPAPGEDKSIYRRGSRRWR (SEQ ID NO:167) (not fully specified)
# T24 chain: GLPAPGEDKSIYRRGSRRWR
# T25: EBNA1BP2 peptide KRPGKKGSNKRPGKR (SEQ ID NO:112) (not fully specified)
# T25 chain: KRPGKKGSNKRPGKR
# T26: … peptide KKPFKLSGLSFKRNRKE (SEQ ID NO:88) (not fully specified)
# T26 chain: KKPFKLSGLSFKRNRKE
# T27: ASIP peptide KKRSSKKEASMKKVVRP (SEQ ID NO:97) (not fully specified)
# T27 chain: KKRSSKKEASMKKVVRP
# T28: MARCKS peptide KKRFSFKKSFKLSGFSFKKN (SEQ ID NO:119) (not fully specified)
# T28 chain: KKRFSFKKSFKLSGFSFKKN
# T29: dag kinase zeta peptide RPQNTLKASKKKKRASFKRK (SEQ ID NO:118) (not fully specified)
# T29 chain: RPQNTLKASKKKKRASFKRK
# T30: MYBPC3 peptide LLKKRDSFRTPRDSKLE (SEQ ID NO:103) (not fully specified)
# T30 chain: LLKKRDSFRTPRDSKLE
# B1: PKC-zeta (protein)
# chain: MPSRTGPKMEGSGGRVRLKAHYGGDIFITSVDAATTFEELCEEVRDMCRLHQQHPLTLKWVDSEGDPCTVSSQMELEEAFRLARQCRDEGLIIHVFPSTPEQPGLPCPGEDKSIYRRGARRWRKLYRANGHLFQAKRFNRRAYCGQCSERIWGLARQGYRCINCKLLVHKRCHGLVPLTCRKHMDSVMPSQEPPVDDKNEDADLPSEETDGIAYISSSRKHDSIKDDSEDLKPVIDGMDGIKISQGLGLQDFDLIRVIGRGSYAKVLLVRLKKNDQIYAMKVVKKELVHDDEDIDWVQTEKHVFEQASSNPFLVGLHSCFQTTSRLFLVIEYVNGGDLMFHMQRQRKLPEEHARFYAAEICIALNFLHERGIIYRDLKLDNVLLDADGHIKLTDYGMCKEGLGPGDTTSTFCGTPNYIAPEILRGEEYGFSVDWWALGVLMFEMMAGRSPFDIITDNPDMNTEDYLFQVILEKPIRIPRFLSVKASHVLKGFLNKDPKERLGCRPQTGFSDIKSHAFFRSIDWDLLEKKQALPPFQPQITDDYGLDNFDTQFTSEPVQLTPDDEDAIKRIDQSEFEGFEYINPLLLSTEESV
# Assays:
# [1] = target: T1, splicing factor, arginine/serine-rich 4 …
# [2] = target: T2, PSCD2 peptide AARKKRISVKKKQEQ (SEQ ID …)
# [3] = target: T3, MARCKS peptide KKRFSFKKSFKLSGFSFKKN …
# [4] = target: T4, CACNA1C peptide RGFLRSASLGRRASFHLE (SEQ …)
# [5] = target: T5, plectin peptide PLKEKKRERKTSSKSSVRKR …
# [6] = target: T6, MARCKS peptide PSPSNETPKKKKKRFSFKKS …
# [7] = target: T7, PARIS1 peptide RELEQLKAEYLERRASRRRA …
# [8] = target: T8, PRKCA peptide RFARKGSLRQKNV (SEQ ID …)
# [9] = target: T9, AF15q14 peptide GFLNEPLSSKSQRRKSLKLK …
# [10] = target: T10, MARCKS peptide KKKKKRFSFKKSFKL (SEQ ID …)
# [11] = target: T11, titin peptide PFEVVWYKDKRQLRSSKKYK (SEQ …)
# [12] = target: T12, GABA A receptor beta 2 peptide …
# [13] = target: T13, PLEC1 peptide KRERKTSSKSSVRKRR (SEQ ID …)
# [14] = target: T14, NCF1 peptide GAPPRRSSIRNAH (SEQ ID …)
# [15] = target: T15, SMARCA5 peptide MAQIERGEARIQRRISIKKA …
# [16] = target: T16, MCM2 peptide VQRHRSMRKTFARYLSFRRD (SEQ …)
# [17] = target: T17, Myt1 kinase peptide …
# [18] = target: T18, nuclear RNA export factor 3 peptide …
# [19] = target: T19, MacMARCKS peptide KKKFSFKKPFKLSGLSFKRN …
# [20] = target: T20, PARIS1 peptide EYLERRASRRRAV (SEQ ID …)
# [21] = target: T21, NIK peptide WKGKRRSKARKKRK (SEQ ID …)
# [22] = target: T22, slp4 peptide TYLLPDKSRQGKRKTSIKRD (SEQ …)
# [23] = target: T23, NEURL peptide ALRRPSLRREADD (SEQ ID …)
# [24] = target: T24, pkc-zeta peptide GLPAPGEDKSIYRRGSRRWR …
# [25] = target: T25, EBNA1BP2 peptide KRPGKKGSNKRPGKR (SEQ …)
# [26] = target: T26, … peptide KKPFKLSGLSFKRNRKE (SEQ ID …)
# [27] = target: T27, ASIP peptide KKRSSKKEASMKKVVRP (SEQ ID …)
# [28] = target: T28, MARCKS peptide KKRFSFKKSFKLSGFSFKKN …
# [29] = target: T29, dag kinase zeta peptide …
# [30] = target: T30, MYBPC3 peptide LLKKRDSFRTPRDSKLE (SEQ …)
protein,measurement,setting,value
B1,"in vitro phosphorylation, 1 uM peptide (% of best substrate)",[1],5
same,"in vitro phosphorylation, 10 uM peptide (% of best substrate)",[1],5
same,in vitro phosphorylation (% of best substrate),[2],1
same,"in vitro phosphorylation, 1 uM peptide (% of best substrate)",[3],20
same,"in vitro phosphorylation, 10 uM peptide (% of best substrate)",[3],20
same,in vitro phosphorylation (% of best substrate),[4],22
same,"in vitro phosphorylation, 1 uM peptide (% of best substrate)",[5],13
same,"in vitro phosphorylation, 10 uM peptide (% of best substrate)",[5],12
same,"in vitro phosphorylation, 1 uM peptide (% of best substrate)",[6],3
same,"in vitro phosphorylation, 10 uM peptide (% of best substrate)",[6],6
same,"in vitro phosphorylation, 1 uM peptide (% of best substrate)",[7],20
same,"in vitro phosphorylation, 10 uM peptide (% of best substrate)",[7],20
same,in vitro phosphorylation (% of best substrate),[8],56
same,"in vitro phosphorylation, 1 uM peptide (% of best substrate)",[9],19
same,"in vitro phosphorylation, 10 uM peptide (% of best substrate)",[9],61
same,in vitro phosphorylation (% of best substrate),[10],16
same,"in vitro phosphorylation, 1 uM peptide (% of best substrate)",[11],15
same,"in vitro phosphorylation, 10 uM peptide (% of best substrate)",[11],57
same,"in vitro phosphorylation, 1 uM peptide (% of best substrate)",[12],22
same,"in vitro phosphorylation, 10 uM peptide (% of best substrate)",[12],37
same,in vitro phosphorylation (% of best substrate),[13],10
same,in vitro phosphorylation (% of best substrate),[14],3
same,"in vitro phosphorylation, 1 uM peptide (% of best substrate)",[15],2
same,"in vitro phosphorylation, 10 uM peptide (% of best substrate)",[15],9
same,"in vitro phosphorylation, 1 uM peptide (% of best substrate)",[16],51
same,"in vitro phosphorylation, 10 uM peptide (% of best substrate)",[16],31
same,"in vitro phosphorylation, 1 uM peptide (% of best substrate)",[17],7
same,"in vitro phosphorylation, 10 uM peptide (% of best substrate)",[17],26
same,"in vitro phosphorylation, 1 uM peptide (% of best substrate)",[18],22
same,"in vitro phosphorylation, 10 uM peptide (% of best substrate)",[18],79
same,"in vitro phosphorylation, 1 uM peptide (% of best substrate)",[19],7
same,"in vitro phosphorylation, 10 uM peptide (% of best substrate)",[19],4
same,"in vitro phosphorylation, 1 uM peptide (% of best substrate)",[20],36
same,"in vitro phosphorylation, 10 uM peptide (% of best substrate)",[20],39
same,"in vitro phosphorylation, 1 uM peptide (% of best substrate)",[21],7
same,"in vitro phosphorylation, 10 uM peptide (% of best substrate)",[21],6
same,"in vitro phosphorylation, 1 uM peptide (% of best substrate)",[22],6
same,"in vitro phosphorylation, 10 uM peptide (% of best substrate)",[22],13
same,in vitro phosphorylation (% of best substrate),[23],4
same,"in vitro phosphorylation, 1 uM peptide (% of best substrate)",[24],5
same,"in vitro phosphorylation, 10 uM peptide (% of best substrate)",[24],37
same,in vitro phosphorylation (% of best substrate),[25],1
same,in vitro phosphorylation (% of best substrate),[26],4
same,in vitro phosphorylation (% of best substrate),[27],1
same,"in vitro phosphorylation, 1 uM peptide (% of best substrate)",[28],20
same,"in vitro phosphorylation, 10 uM peptide (% of best substrate)",[28],20
same,"in vitro phosphorylation, 1 uM peptide (% of best substrate)",[29],46
same,"in vitro phosphorylation, 10 uM peptide (% of best substrate)",[29],57
same,in vitro phosphorylation (% of best substrate),[30],8
